Laboratory results taken from the supplement of paper PMC7125110.
± gives the standard error. Fewer inactive variants are shown than the library holds.

B1: glmS ribozyme (parent)
chain: AUAAAAGCGCCAGAACUACAGAAAUGUAGUUGACGAGGAGGAGGUUUAUCGAAUUUUCGGCGGAUGCCUCCAAA

Key:
Details in all cases: with glucosamine-6-phosphate
[1] = variants of: B1; assay: self-cleavage kobs at 40 uM GlcN6P; higher = faster cleavage; RNA array
In short: (§1)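 Ribozyme variants carrying barcodes were transcribed in situ on sequenced MiSeq chips by E. coli RNA polymerase and tracked at 37 °C with a hybridised Cy3 probe. They were exposed to 40 μM to 10 mM glucosamine-6-phosphate in HEPES/KCl/Mg(OAc)2 buffer. kobs came from exponential decay fits of normalised per-tile medians, and kcat and KM from weighted Michaelis–Menten fits.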

[2] = variants of: B1; assay: self-cleavage kobs at 10000 uM GlcN6P; higher = faster cleavage; RNA array
In short: as §1

[3] = variants of: B1; assay: self-cleavage kobs at 640 uM GlcN6P; higher = faster cleavage; RNA array
In short: as §1

[4] = variants of: B1; assay: self-cleavage kobs at 160 uM GlcN6P; higher = faster cleavage; RNA array
In short: as §1

[5] = variants of: B1; assay: self-cleavage kobs at 2500 uM GlcN6P; higher = faster cleavage; RNA array
In short: as §1

Variant	self-cleavage kobs at 40 uM GlcN6P [1]	self-cleavage kobs at 10000 uM GlcN6P [2]	self-cleavage kobs at 640 uM GlcN6P [3]	self-cleavage kobs at 160 uM GlcN6P [4]	self-cleavage kobs at 2500 uM GlcN6P [5]
A12G A14U G38A	< 1e-05 s⁻¹	< 1e-05 s⁻¹			
G13A C50G G66U U69A	8.64e-05 ± 2.3e-05 s⁻¹	0.000117 ± 3e-05 s⁻¹	0.000563 ± 0.00026 s⁻¹		
G13A U30C A42U	< 1e-05 s⁻¹	< 1e-05 s⁻¹			
A12G G32A	< 1e-05 s⁻¹	5.21e-05 ± 7.4e-06 s⁻¹		< 1e-05 s⁻¹	
A12U A36U G44A	< 1e-05 s⁻¹				
A12G G32A A33U C70G	< 1e-05 s⁻¹		< 1e-05 s⁻¹	< 1e-05 s⁻¹	
C11G U54C	< 1e-05 s⁻¹				
G13C G51C G63C	< 1e-05 s⁻¹				
G13U G59C	< 1e-05 s⁻¹	< 1e-05 s⁻¹	< 1e-05 s⁻¹		
C11U A42C U56A C68A	< 1e-05 s⁻¹	< 1e-05 s⁻¹			
C11U A15C A48U G60A	< 1e-05 s⁻¹	< 1e-05 s⁻¹			
A12U G40A U45C	6.12e-05 ± 2e-05 s⁻¹	0.00175 ± 0.0003 s⁻¹			
C11U A48U G51U	< 1e-05 s⁻¹				
G13C G38A C58U	< 1e-05 s⁻¹				
A14C G63A	< 1e-05 s⁻¹	< 1e-05 s⁻¹	< 1e-05 s⁻¹		
G13C A36C U46G C68A	< 1e-05 s⁻¹	< 1e-05 s⁻¹			
A12U G41U C61U	< 1e-05 s⁻¹	< 1e-05 s⁻¹	< 1e-05 s⁻¹	< 1e-05 s⁻¹	< 1e-05 s⁻¹
C11G U31A	< 1e-05 s⁻¹		< 1e-05 s⁻¹	< 1e-05 s⁻¹	
A12U G40U C61A	< 1e-05 s⁻¹	< 1e-05 s⁻¹			
G13U A36U C50U C70U	7.67e-05 ± 2.7e-05 s⁻¹				
A12G C34G G41C C50U U55A	< 1e-05 s⁻¹		< 1e-05 s⁻¹		
G13U C16G U31G C34U	< 1e-05 s⁻¹				

Variant	self-cleavage kobs at 40 uM GlcN6P [1]	self-cleavage kobs at 10000 uM GlcN6P [2]	self-cleavage kobs at 640 uM GlcN6P [3]	self-cleavage kobs at 160 uM GlcN6P [4]	self-cleavage kobs at 2500 uM GlcN6P [5]
G13C G59C	< 1e-05 s⁻¹	< 1e-05 s⁻¹	< 1e-05 s⁻¹	< 1e-05 s⁻¹	
G13U G37A	< 1e-05 s⁻¹	6.96e-05 ± 8.5e-06 s⁻¹		< 1e-05 s⁻¹	
G13A C16U C67U	< 1e-05 s⁻¹	0.00025 ± 4.5e-05 s⁻¹			0.000111 ± 2.7e-05 s⁻¹
A14C G29U G38U G44A A64U	< 1e-05 s⁻¹	< 1e-05 s⁻¹			
C11G U54C C70U	< 1e-05 s⁻¹	< 1e-05 s⁻¹			
C11G U69G	3.62e-05 ± 1.4e-05 s⁻¹		0.000184 ± 3.4e-05 s⁻¹	0.000125 ± 2.3e-05 s⁻¹	8.88e-05 ± 1.6e-05 s⁻¹
A12G C16U C34A A39U G60A U69G	< 1e-05 s⁻¹				
A12U U45G U46A	0.000262 ± 8.5e-05 s⁻¹				0.00886 ± 0.0031 s⁻¹
G13U A33U G44C	< 1e-05 s⁻¹				
C11U A14U G43U U54A G63A	< 1e-05 s⁻¹				< 1e-05 s⁻¹
A12G A15C G35U C71U	< 1e-05 s⁻¹			< 1e-05 s⁻¹	
A14C A15U G51C	< 1e-05 s⁻¹				
G13C C16A G37U	< 1e-05 s⁻¹	< 1e-05 s⁻¹			
C11G G60C	< 1e-05 s⁻¹	< 1e-05 s⁻¹	< 1e-05 s⁻¹	< 1e-05 s⁻¹	
G13A A36U A48G C50G C61G	0.000674 ± 0.00026 s⁻¹				
G13U G29U A52G C67G	6.42e-05 ± 1.9e-05 s⁻¹	8.86e-05 ± 1.8e-05 s⁻¹			
G13C U57G	< 1e-05 s⁻¹				
A12C A42G C70A	< 1e-05 s⁻¹	2.91e-05 ± 1.2e-05 s⁻¹			
A12U A14G C16G	0.000643 ± 0.00021 s⁻¹				
G13C C50G G66C	3.47e-05 ± 1.6e-05 s⁻¹				
G13U A36G	< 1e-05 s⁻¹	< 1e-05 s⁻¹	< 1e-05 s⁻¹	< 1e-05 s⁻¹	< 1e-05 s⁻¹
A14C A48G U69C	< 1e-05 s⁻¹				

Variant	self-cleavage kobs at 40 uM GlcN6P [1]	self-cleavage kobs at 10000 uM GlcN6P [2]	self-cleavage kobs at 640 uM GlcN6P [3]	self-cleavage kobs at 160 uM GlcN6P [4]	self-cleavage kobs at 2500 uM GlcN6P [5]
A12C A24U A52C C67A	< 1e-05 s⁻¹				
A14C G43U	< 1e-05 s⁻¹		< 1e-05 s⁻¹	< 1e-05 s⁻¹	< 1e-05 s⁻¹
A12U U54A U69A	0.000126 ± 4.4e-05 s⁻¹	0.000322 ± 6.8e-05 s⁻¹	0.000125 ± 2.7e-05 s⁻¹	0.000159 ± 4.6e-05 s⁻¹	0.000458 ± 9.4e-05 s⁻¹
C11U A64C	< 1e-05 s⁻¹	< 1e-05 s⁻¹			
C11U A64U	< 1e-05 s⁻¹		< 1e-05 s⁻¹	< 1e-05 s⁻¹	
G13A U46C C67A	< 1e-05 s⁻¹		< 1e-05 s⁻¹		
A12C G29U	0.000186 ± 2.6e-05 s⁻¹	0.031 ± 0.014 s⁻¹	0.00225 ± 0.00065 s⁻¹	0.000725 ± 0.00022 s⁻¹	0.00483 ± 0.0017 s⁻¹
A12C A33C C71G	< 1e-05 s⁻¹	< 1e-05 s⁻¹			
A12U C68G C70G	< 1e-05 s⁻¹				
A12U G32C C67U	< 1e-05 s⁻¹				
A12U A14U A53G	0.000135 ± 3.3e-05 s⁻¹	0.00411 ± 0.00079 s⁻¹			
A14C C34U G60U	< 1e-05 s⁻¹	< 1e-05 s⁻¹	< 1e-05 s⁻¹		< 1e-05 s⁻¹
A12C G32U C71A	< 1e-05 s⁻¹				
C11U G62C	< 1e-05 s⁻¹		< 1e-05 s⁻¹	< 1e-05 s⁻¹	< 1e-05 s⁻¹
G13C U49C	< 1e-05 s⁻¹	< 1e-05 s⁻¹			< 1e-05 s⁻¹
A12G A14U A36G A48G A53G	< 1e-05 s⁻¹	< 1e-05 s⁻¹			< 1e-05 s⁻¹
C11U A15C U46A	< 1e-05 s⁻¹		< 1e-05 s⁻¹	< 1e-05 s⁻¹	
G13A A39U C61U	< 1e-05 s⁻¹				< 1e-05 s⁻¹
A12U G41U A42G	0.000102 ± 1.6e-05 s⁻¹	0.00149 ± 0.0003 s⁻¹			
G13C U31G A48U	< 1e-05 s⁻¹				
A12C U54A	0.000707 ± 7e-05 s⁻¹	0.0301 ± 0.0049 s⁻¹	0.0159 ± 0.0035 s⁻¹	0.00199 ± 0.00034 s⁻¹	0.00841 ± 0.0015 s⁻¹
G13A G32C G43U A48G U69A	< 1e-05 s⁻¹				

Variant	self-cleavage kobs at 40 uM GlcN6P [1]	self-cleavage kobs at 10000 uM GlcN6P [2]	self-cleavage kobs at 640 uM GlcN6P [3]	self-cleavage kobs at 160 uM GlcN6P [4]	self-cleavage kobs at 2500 uM GlcN6P [5]
A12U U31C G41A G60U	< 1e-05 s⁻¹				
G13C G40U A53U G59U	< 1e-05 s⁻¹	< 1e-05 s⁻¹			
C11U A36C C61U	< 1e-05 s⁻¹		< 1e-05 s⁻¹		
A12C G43C	< 1e-05 s⁻¹		< 1e-05 s⁻¹	< 1e-05 s⁻¹	
A12C G38C G44A A64G	< 1e-05 s⁻¹				< 1e-05 s⁻¹
A12U A53U	0.00177 ± 0.00024 s⁻¹	0.112 ± 0.036 s⁻¹	0.0159 ± 0.0029 s⁻¹	0.00421 ± 0.00071 s⁻¹	0.0274 ± 0.007 s⁻¹
G13U U31C A33C A48C A52C U56G	< 1e-05 s⁻¹				
A12C A14C G60A A64C	< 1e-05 s⁻¹				
G13C G29U A48U	< 1e-05 s⁻¹		< 1e-05 s⁻¹		
A12G A15U U49A U54G	< 1e-05 s⁻¹				
G13A U49A A64G	< 1e-05 s⁻¹		< 1e-05 s⁻¹	< 1e-05 s⁻¹	
G13U G43A C50A C61U C68U	< 1e-05 s⁻¹				
A14C A36G C71U	< 1e-05 s⁻¹				
G13A U45C A64G	< 1e-05 s⁻¹				
A12U A33C G37C	< 1e-05 s⁻¹	< 1e-05 s⁻¹			
A12C A15C U47A U49A	< 1e-05 s⁻¹	< 1e-05 s⁻¹			
G13A C58U C67G	< 1e-05 s⁻¹				
A12U A42G U46G G63U	< 1e-05 s⁻¹	< 1e-05 s⁻¹			
G13U A33C	< 1e-05 s⁻¹		< 1e-05 s⁻¹	< 1e-05 s⁻¹	< 1e-05 s⁻¹
A14C A64U	< 1e-05 s⁻¹		< 1e-05 s⁻¹	< 1e-05 s⁻¹	
G13A G62U C70U	< 1e-05 s⁻¹	< 1e-05 s⁻¹			
C11U U65A	< 1e-05 s⁻¹		0.000121 ± 3.6e-05 s⁻¹		9.22e-05 ± 2e-05 s⁻¹

Variant	self-cleavage kobs at 40 uM GlcN6P [1]	self-cleavage kobs at 10000 uM GlcN6P [2]	self-cleavage kobs at 640 uM GlcN6P [3]	self-cleavage kobs at 160 uM GlcN6P [4]	self-cleavage kobs at 2500 uM GlcN6P [5]
A12C A42U C58U	< 1e-05 s⁻¹				
C11G U46A	< 1e-05 s⁻¹	< 1e-05 s⁻¹		< 1e-05 s⁻¹	< 1e-05 s⁻¹
C11U G44C G60U	< 1e-05 s⁻¹	< 1e-05 s⁻¹			
G13C G29U G32A	7.61e-05 ± 2.4e-05 s⁻¹	0.00214 ± 0.00069 s⁻¹			
G13A G35A	< 1e-05 s⁻¹		< 1e-05 s⁻¹	< 1e-05 s⁻¹	< 1e-05 s⁻¹
A12C G62C	< 1e-05 s⁻¹	< 1e-05 s⁻¹			< 1e-05 s⁻¹
C11U G29A G32U C50G	7.73e-05 ± 3.1e-05 s⁻¹	7.84e-05 ± 2.3e-05 s⁻¹			
A14C A33U A53U U56G	< 1e-05 s⁻¹	2.92e-05 ± 1.4e-05 s⁻¹			
A12U G44C U65A	< 1e-05 s⁻¹				
C11U A33C A52G C67A	< 1e-05 s⁻¹				
G13C G66C	< 1e-05 s⁻¹		< 1e-05 s⁻¹		
G13U G35C	< 1e-05 s⁻¹	< 1e-05 s⁻¹	< 1e-05 s⁻¹	< 1e-05 s⁻¹	< 1e-05 s⁻¹
A14C A15C C50G G60C C67U	6.66e-05 ± 3e-05 s⁻¹				
A12C G26U	0.000614 ± 0.00014 s⁻¹	0.0113 ± 0.0032 s⁻¹	0.00546 ± 0.0013 s⁻¹		0.00321 ± 0.00099 s⁻¹
A12U G29A A39G A53U	0.000581 ± 0.00016 s⁻¹	0.0117 ± 0.0041 s⁻¹			
A12G G37C	< 1e-05 s⁻¹	< 1e-05 s⁻¹	< 1e-05 s⁻¹		
A12C C70U	0.000475 ± 4e-05 s⁻¹	0.0163 ± 0.0022 s⁻¹	0.00328 ± 0.00037 s⁻¹	0.00111 ± 0.00017 s⁻¹	0.0217 ± 0.0053 s⁻¹
G13C G44C	< 1e-05 s⁻¹	< 1e-05 s⁻¹	< 1e-05 s⁻¹	< 1e-05 s⁻¹	< 1e-05 s⁻¹
